In patent US20230279151A1 one finds Kd, koff and kon data, which are given here for one molecule.

In the assay the target is human IL13 (IL012, Millipore) (human) (UniProt P35225). The assay can be described thus: SPR, Biacore 3000, antibody captured by anti-human Fc, IL13 as analyte; HEK293-FS expression.
Chain of human IL13 (IL012, Millipore) (human) (P35225 35-146 limits assumed): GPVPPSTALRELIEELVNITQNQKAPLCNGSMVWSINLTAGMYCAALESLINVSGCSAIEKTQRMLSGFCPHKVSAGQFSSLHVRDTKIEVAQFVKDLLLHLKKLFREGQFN

B1: anti-IL13 mAb ctrl (antibody, from a related filing, V domains shown)
VH: EVQLKESGPGLVAPGGSLSITCTVSGFSLTDSSINWVRQPPGKGLEWLGMIWGDGRIDYADALKSRLSISKDSSKSQVFLEMTSLRTDDTATYYCARDGYFPYAMDFWGQGTSVTVSS
VL: DIVLTQSPASLAVSLGQRATISCRASESVDSYGQSYMHWYQQKAGQPPKLLIYLASNLESGVPARFSGSGSRTDFTLTIDPVQAEDAATYYCQQNAEDSRTFGGGTKLEIK
The Kd is a measure of binding affinity in units of concentration. In general, koff refers to a measure of how fast the partners let go of each other. By kon is commonly meant a measure of how fast the partners come together. Higher therefore signals faster complex formation. B1 returned a Kd of 88.8 pM, an off-rate (koff) of 4.52e-05 s⁻¹ and an association rate constant (kon) of 508000 M⁻¹ s⁻¹.
